Test results as given in patent US20220073646A1 (Hoffmann-La Roche, published 2022).
Like-named read-outs stand apart in the source and are kept apart here.

Experiments:
[1] = biological target: T1, recombinant human OX40 Fc(kih) (human, UniProt P0DOX5 223-449 = IgG part, biotin on C-terminal Avi tag where used biotinylated); experiment: phage display, Fab ELISA
T1 construct: antigen Fc knob chain plus Fc hole chain; also called monomeric human OX40 antigen Fc(kih) fusion; biotinylated human OX40

[2] = biological target: T2, human 4-1BB on cells (human, UniProt Q07011 24-255); experiment: cell-based or functional assay
[3] = biological target: mouse 4-1BB on activated mouse splenocytes (mouse, UniProt P20334 24-256); experiment: flow cytometry, activated mouse T cells
Protocol: Cells were incubated for 30 min at 4° C., washed twice with 200 μL/well FACS-buffer and resuspended for fixation with 50 μL/well DPBS containing 1% (v/v) formaldehyde. The next day cells were resuspended in 200 μL/well FACS buffer and acquired using the 2-laser Cantoll (BD Bioscience with DIVA software) or 5-laser Fortessa (BD Bioscience with DIVA software). Gates were set on CD8⁺ and CD4⁺ T cells and the median fluorescence intensity (MFI) of the secondary detection antibody was used to analyze binding of primary antibodies. Using Graph Pad Prism (Graph Pad Software Inc.) data was baselined by subtracting the blank values (no primary antibody added) and the EC₅₀ values were calculated using non-linear regression curve fit (robust fit).

[4] = biological target: T3, cynomolgus 4-1BB on activated cynomolgus PBMC (cynomolgus, UniProt Q07011 24-255 (human entry)); experiment: flow cytometry, activated cynomolgus PBMC
T3 chain: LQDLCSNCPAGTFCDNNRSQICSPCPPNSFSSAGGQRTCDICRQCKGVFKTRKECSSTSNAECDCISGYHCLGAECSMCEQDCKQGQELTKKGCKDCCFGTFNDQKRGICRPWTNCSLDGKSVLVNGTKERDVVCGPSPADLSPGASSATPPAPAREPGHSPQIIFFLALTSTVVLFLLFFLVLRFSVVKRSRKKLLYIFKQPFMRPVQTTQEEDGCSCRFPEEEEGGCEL
Protocol: Cells were washed twice with FACS buffer and resuspended in 100 μL/well FACS buffer supplied with 0.2 μg/mL DAPI to discriminated dead from living cells. Cells were immediately acquired using a 5-laser Fortessa (BD Bioscience with DIVA software). Gates were set on CD8⁺ and CD4⁺ T cells and the median fluorescence intensity (MFI) of the secondary detection antibody was used to analyze binding of primary antibodies. Using Graph Pad Prism (Graph Pad Software Inc.) data was baselined by subtracting the blank values (no primary antibody added) and the EC₅₀ values were calculated using non-linear regression curve fit (robust fit).

[5] = biological target: T4, recombinant human 4-1BB Fc(kih) (human, UniProt P0DOX5 223-449 = IgG part, biotin on C-terminal Avi tag where used biotinylated); experiment: SPR, captured IgG, 4-1BB Fc(kih) analyte
T4 construct: also called hu4-1BB; biotinylated human 4-1BB
Protocol: (§1) All SPR experiments were performed on a Biacore T200 at 25° C. with HBS-EP as running buffer (0.01 M HEPES pH 7.4, 0.15 M NaCl, 3 mM EDTA, 0.005% Surfactant P20, Biacore, Freiburg/Germany).
Anti-human Fab antibody (Biacore, Freiburg/Germany) was directly coupled on a CM5 chip at pH 5.0 using the standard amine coupling kit (Biacore, Freiburg/Germany). The immobilization level was approximately 7500 RU. […] The dissociation was monitored for 120 seconds. Bulk refractive index differences were corrected for by subtracting the response obtained on reference flow cell.

[6] = biological target: T2, human 4-1BB on cells; experiment: flow cytometry, activated human CD8 T cells
Protocol: (§2) Plates were centrifuged 4 minutes with 400×g at 4° C. and supernatant was discarded. […] Afterwards cells were washed once with 200 μL/well cold FACS buffer (DPBS supplied with 2% (v/v) FBS, 5 mM EDTA pH8 (Amresco, Cat. No. E177) and 7.5 mM sodium azide (Sigma-Aldrich S2002)). […] Cells were washed four times with 200 μL/well 4° C.
Cells were washed twice with 200 μL FACS buffer/well and fixated by resuspending in 50 μL/well DPBS containing 1% Formaldehyde (Sigma, HT501320-9.5L). Cells were acquired the same or next day using a 3-laser Canto II (BD Bioscience with DIVA software) or a 5-laser Fortessa (BD Bioscience with DIVA software) or 3-laser MACSQuant Analyzer 10 (Miltenyi Biotech). Gates were set on CD8⁺ and CD4⁺ T cells and the median fluorescence intensity (MFI) or geo mean of fluorescence intensity of the secondary detection antibody was used to analyze binding of primary antibodies. Using Graph Pad Prism (Graph Pad Software Inc.) data was baselined by subtracting the blank values (no primary antibody added) and the EC50 values were calculated using non-linear regression curve fit (robust fit).

[7] = biological target: recombinant cynomolgus 4-1BB Fc(kih) (cynomolgus, UniProt P0DOX5 223-449 = IgG part, biotin on C-terminal Avi tag where used biotinylated); experiment: SPR, captured IgG, cyno 4-1BB Fc(kih) analyte
Protocol: as §1
Anti-human Fab antibody (Biacore, Freiburg/Germany) was directly coupled on a CM5 chip at pH 5.0 using the standard amine coupling kit (Biacore, Freiburg/Germany). The immobilization level was approximately 9000 RU.

[8] = biological target: T5, recombinant murine 4-1BB Fc(kih) (murine, UniProt P0DOX5 223-449 = IgG part, biotin on C-terminal Avi tag where used biotinylated); experiment: phage display, Fab screening
T5 construct: also called mu4-1BB

[9] = biological target: T2, human 4-1BB on cells; experiment: cell-based or functional assay; remark: listed apart in the source
[10] = biological target: T6, human fibroblast activation protein (huFAP) on cells (human, UniProt Q12884 1-760); experiment: flow cytometry, NIH/3T3-huFAP clone 19
T6 construct: also called NIH/3T3-huFAP clone 39; NIH/3T3-huFAP clone 19
Protocol: Cells were maintained in the presence of 1.5 μg/mL puromycin (InvivoGen, Cat.-No.: ant-pr-5). […] Plates were incubated for 30 minutes at 4° C. and washed once with 200 μL 4° C. cold DPBS buffer. […] Cells were washed twice with 200 μL 4° C. FACS buffer and then resuspended in 50 μL/well DPBS containing 1% Formaldehyde for fixation. The same or the next day cells were resuspended in 100 μL FACS-buffer and acquired using 5-laser LSR-Fortessa (BD Bioscience with DIVA software) or MACSQuant Analyzer 10 (Miltenyi Biotec).

[11] = biological target: T2, human 4-1BB on cells; experiment: flow cytometry, activated human CD8+ T cells
Protocol: as §2
Cells were washed twice with 200 μL FACS buffer/well and fixated by resuspending in 50 μL/well DPBS containing 1% Formaldehyde (Sigma, HT501320-9.5L). Cells were acquired the same or next day using 3-laser MACSQuant Analyzer 10 (Miltenyi Biotech). Gates were set on CD8⁺ and CD4⁺ T cells and the geo mean of fluorescence intensity (MFI) of the secondary detection antibody was used to analyze binding of primary antibodies. Using Graph Pad Prism (Graph Pad Software Inc.) data was baselined by subtracting the blank values (no primary antibody added) and the EC₅₀ values were calculated using non-linear regression curve fit (robust fit).

[12] = biological target: T7, recombinant human GITR Fc(kih) (human, UniProt P0DOX5 223-449 = IgG part, biotin on C-terminal Avi tag where used biotinylated); experiment: SPR, GITR Fc(kih) on SA chip, FAP second analyte
T7 construct: also called hu GITR-Fc; human monomeric GITR-Fc fusion
Protocol: (§3) All SPR experiments were performed on a Biacore T200 at 25° C. with HBS-EP as running buffer (0.01 M HEPES pH 7.4, 0.15 M NaCl, 3 mM EDTA, 0.005% Surfactant P20, Biacore, Freiburg/Germany). […] Immobilization levels up to 1000 resonance units (RU) were used. The bispecific constructs targeting GITR and FAP were passed at a concentration range of 200 nM with a flow of 30 μL/minute through the flow cells over 90 seconds and dissociation was set to zero sec. Human FAP was injected as second analyte with a flow of 30 μL/minute through the flow cells over 90 seconds at a concentration of 500 nM. The dissociation was monitored for 120 sec. Bulk refractive index differences were corrected for by subtracting the response obtained in a reference flow cell, where no protein was immobilized.

[13] = biological target: T6, human fibroblast activation protein …; experiment: flow cytometry, 3T3-huFAP
[14] = biological target: T8, human GITR on HEK cells (HEK-GITR) (human, UniProt Q9Y5U5 26-241); experiment: flow cytometry, HEK-GITR
T8 construct: also called cell surface expressed human GITR
T8 sequence: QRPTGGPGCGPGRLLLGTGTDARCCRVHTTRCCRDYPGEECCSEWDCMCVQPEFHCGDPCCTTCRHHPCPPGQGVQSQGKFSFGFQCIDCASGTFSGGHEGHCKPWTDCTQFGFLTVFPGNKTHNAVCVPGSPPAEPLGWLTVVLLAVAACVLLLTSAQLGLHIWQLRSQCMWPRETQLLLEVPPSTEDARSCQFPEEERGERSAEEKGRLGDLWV
Protocol: Cells were washed twice with complete media and once with PBS+2% FBS before adjusting cell density to 1×10⁷ cells/mL in PBS+2% FBS.
Plates were centrifuged at 4° C., 3 minutes at 600×g and supernatant was flicked off. Cells were resuspended in 50 μL/well of 4° C. cold PBS+2% FBS containing titrated anti-GITR antibody constructs for 120 minutes at 4° C. Plates were washed twice with 200 μL/well 4° C. PBS+2% FBS to remove unbound construct. […] Plates were centrifuged at 4° C. for 3 minutes at 600×g and washed twice with PBS+2% FBS. […] Plates were centrifuged at 4° C., 3 minutes at 600×g and supernatant was flicked off.

[15] = biological target: T9, human FAP (His-tagged ectodomain) (human, UniProt Q12884 27-760); experiment: SPR, GITR Fc(kih) on SA chip, FAP second analyte
T9 construct: SPR texts say 'human FAP' or 'His-tagged ... dimeric FAP'; also called hu FAP; human FAP (analyte 2)
Protocol: as §3

[16] = biological target: T10, human OX40 on cells (human, UniProt P43489 29-277); experiment: cell-based or functional assay
T10 sequence: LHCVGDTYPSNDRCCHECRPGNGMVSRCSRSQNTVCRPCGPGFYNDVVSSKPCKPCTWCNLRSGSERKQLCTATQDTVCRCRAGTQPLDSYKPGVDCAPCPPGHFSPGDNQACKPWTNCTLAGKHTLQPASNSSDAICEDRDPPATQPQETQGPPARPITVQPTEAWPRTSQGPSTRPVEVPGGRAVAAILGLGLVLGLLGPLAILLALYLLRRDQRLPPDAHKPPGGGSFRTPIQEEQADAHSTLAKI

[17] = biological target: T10, human OX40 on cells; experiment: cell-based or functional assay; remark: listed apart in the source
[18] = biological target: T6, human fibroblast activation protein …; experiment: flow cytometry, WM266-4 cells
[19] = biological target: T11, recombinant human OX40 His (human); experiment: SPR, captured IgG, OX40 His analyte
T11 construct: ectodomain with avi and hexahistidine tag; also called human Ox40 avi His
T11 chain: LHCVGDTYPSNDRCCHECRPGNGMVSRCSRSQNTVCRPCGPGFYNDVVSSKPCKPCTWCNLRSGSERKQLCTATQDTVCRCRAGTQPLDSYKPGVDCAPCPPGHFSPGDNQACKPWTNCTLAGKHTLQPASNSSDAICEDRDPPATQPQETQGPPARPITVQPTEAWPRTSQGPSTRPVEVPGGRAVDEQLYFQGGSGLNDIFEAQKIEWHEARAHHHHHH
Protocol: as §1
Setup 2) Anti-human Fc antibody (Biacore, Freiburg/Germany) was directly coupled on a CM5 chip at pH 5.0 using the standard amine coupling kit (Biacore, Freiburg/Germany). The immobilization level was approximately 8000 RU. […] The dissociation was monitored for 120 seconds. Bulk refractive index differences were corrected for by subtracting the response obtained on reference flow cell.

[20] = biological target: T1, recombinant human OX40 Fc(kih); experiment: SPR, captured IgG, OX40 Fc(kih) analyte
Protocol: as §1
Setup 1) Anti-human Fab antibody (Biacore, Freiburg/Germany) was directly coupled on a CM5 chip at pH 5.0 using the standard amine coupling kit (Biacore, Freiburg/Germany). The immobilization level was approximately 9000 RU. […] The dissociation was monitored for 120 seconds. Bulk refractive index differences were corrected for by subtracting the response obtained on reference flow cell.

[21] = biological target: T10, human OX40 on cells; experiment: flow cytometry, activated human CD4 T cells
Protocol: Plates were centrifuged 4 minutes with 400×g and at 4° C. and supernatant was flicked off. Cell were washed once with 200 μL 4° C. cold FACS buffer (DPBS supplied with 2% FBS, 5 mM EDTA pH8 (Amresco, Cat. No. E177) and 7.5 mM Sodium azide (Sigma-Aldrich S2002)). […] Plates were washed four times with 200 μL/well 4° C. FACS buffer to remove unbound construct.
Plates where washed twice with 200 μL/well 4° C.

[22] = biological target: T10, human OX40 on cells; experiment: flow cytometry, activated human CD4 T cells; remark: listed apart in the source
[23] = biological target: recombinant cynomolgus OX40 Fc(kih) (cynomolgus, UniProt P0DOX5 223-449 = IgG part, biotin on C-terminal Avi tag where used biotinylated); experiment: SPR, captured IgG, cyno OX40 Fc(kih) analyte
Protocol: as §1
Anti-human Fab antibody (Biacore, Freiburg/Germany) was directly coupled on a CM5 chip at pH 5.0 using the standard amine coupling kit (Biacore, Freiburg/Germany). The immobilization level was approximately 9000 RU. […] The dissociation was monitored for 120 seconds. Bulk refractive index differences were corrected for by subtracting the response obtained on reference flow cell.

[24] = biological target: T12, cynomolgus OX40 on activated cynomolgus PBMC (cynomolgus, UniProt P43489 29-214 (human entry)); experiment: flow cytometry, activated cynomolgus CD4 T cells
T12 construct: whole, on cells
T12 chain: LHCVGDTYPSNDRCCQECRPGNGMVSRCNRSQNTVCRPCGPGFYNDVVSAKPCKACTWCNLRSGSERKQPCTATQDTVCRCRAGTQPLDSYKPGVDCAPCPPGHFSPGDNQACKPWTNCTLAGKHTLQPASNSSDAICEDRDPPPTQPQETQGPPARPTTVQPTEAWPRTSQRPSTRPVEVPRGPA
Protocol: Then, plates were washed four times with 200 μL/well 4° C. FACS buffer. […] Plates where washed twice with 200 μL/well 4° C.

[25] = biological target: T13, huOX40-SNAP fusion on Hek293 EBNA cells (human, UniProt P43489 29-277, labeled with the FRET donor Terbium); experiment: cell FRET competition against d2-labeled (49B4) IgG
T13 construct: not shown: SNAP tag
T13 sequence: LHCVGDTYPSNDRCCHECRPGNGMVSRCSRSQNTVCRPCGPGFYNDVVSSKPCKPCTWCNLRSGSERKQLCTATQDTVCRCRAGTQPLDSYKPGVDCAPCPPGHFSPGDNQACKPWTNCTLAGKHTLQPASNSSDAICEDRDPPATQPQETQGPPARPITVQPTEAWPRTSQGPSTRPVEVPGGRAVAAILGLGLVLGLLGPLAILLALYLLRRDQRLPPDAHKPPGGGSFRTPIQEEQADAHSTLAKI

Chain of mouse 4-1BB on activated mouse splenocytes (P20334 24-256 limits assumed): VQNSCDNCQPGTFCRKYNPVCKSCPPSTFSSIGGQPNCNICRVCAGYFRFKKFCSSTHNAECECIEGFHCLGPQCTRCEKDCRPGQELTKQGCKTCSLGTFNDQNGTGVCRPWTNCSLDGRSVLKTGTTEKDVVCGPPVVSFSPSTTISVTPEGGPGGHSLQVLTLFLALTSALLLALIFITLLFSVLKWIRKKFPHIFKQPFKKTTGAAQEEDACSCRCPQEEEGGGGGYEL

B1: clone 17A9 Fab (Fab, V domains shown)
VH: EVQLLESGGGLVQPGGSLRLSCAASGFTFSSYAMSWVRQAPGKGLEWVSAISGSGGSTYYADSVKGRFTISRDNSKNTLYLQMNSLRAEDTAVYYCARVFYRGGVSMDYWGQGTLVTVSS
VL: SSELTQDPAVSVALGQTVRITCQGDSLRSYYASWYQQKPGQAPVLVIYGKNNRPSGIPDRFSGSSSGNTASLTITGAQAEDEADYYCNSRVMPHNRVFGGGTKLTV
notes: phage library Fab with CH1/CL and tags
- binding result [1]: binds

B2: 9B11 P329GLALA IgG1 (antibody, V domains shown)
VH: QVQLVQSGAEVKKPGSSVKVSCKASGGTFSSYAISWVRQAPGQGLEWMGGIIPIFGTANYAQKFQGRVTITADKSTSTAYMELSSLRSEDTAVYYCARSSGAYPGYFDYWGQGTTVTVSS
VL: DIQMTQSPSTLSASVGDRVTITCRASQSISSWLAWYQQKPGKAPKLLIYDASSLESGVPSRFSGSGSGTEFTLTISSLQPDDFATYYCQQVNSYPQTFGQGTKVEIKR
notes: anti-4-1BB
- EC50 of increase of IFNγ secretion in activated CD8+ T cells (surface-immobilized IgG) [2]: 0.12 nM
- binding result [3]: no binding
- binding result [4]: binds
- Kd [5]: 140 nM
- koff [5]: 0.0039 s⁻¹
- kon [5]: 27000 M⁻¹ s⁻¹
- EC50 [6]: 4.49 nM
- Kd [7]: 78 nM
- koff [7]: 0.002 s⁻¹
- kon [7]: 26000 M⁻¹ s⁻¹

B3: clone 20G2 Fab (Fab, V domains shown)
VH: QVQLVQSGAEVKKPGSSVKVSCKASGGTFSSYAISWVRQAPGQGLEWMGGIIPIFGTANYAQKFQGRVTITADKSTSTAYMELSSLRSEDTAVYYCARSYYWESYPFDYWGQGTTVTVSS
VL: DIQMTQSPSTLSASVGDRVTITCRASQSISSWLAWYQQKPGKAPKLLIYDASSLESGVPSRFSGSGSGTEFTLTISSLQPDDFATYYCQQQHSYYTFGQGTKVEIK
notes: as for B1
- binding result [8]: binds

B4: 12B3/FAP P329GLALA IgG1 2+2 (bispecific antibody)
heavy: not shown
light 1: not shown
light 2: EIVLTQSPGTLSLSPGERATLSCRASQSVSRSYLAWYQQKPGQAPRLLIIGASTRATGIPDRFSGSGSGTDFTLTISRLEPEDFAVYYCQQGQVIPPTFGQGTKVEIKSSASTKGPSVFPLAPSSKSTSGGTAALGCLVKDYFPEPVTVSWNSGALTSGVHTFPAVLQSSGLYSLSSVVTVPSSSLGTQTYICNVNHKPSNTKVDKKVEPKSCD
notes: also called 12B3×FAP (28H1) 2+2
- EC50 of NFκB/luciferase activation, 4-1BB reporter HeLa with NIH/3T3-huFAP clone 19 [9]: 0.2 nM
- EC50 [10]: 12.2 nM
- EC50 [11]: 2 nM

B5: (GITR-FAP) [8A06] 4+1 construct (bispecific antibody, human IgG1, lambda, L234A L235A)
heavy 1: not shown
heavy 2: not shown
light: SSELTQDPAVSVALGQTVRITCQGDSLRSYYASWYQQKPGQAPVLVIYGKNNRPSGIPDRFSGSSSGNTASLTITGAQAEDEADYYCNSPQTSGSAVFGGGTKLTVLGQPKAAPSVTLFPPSSEELQANKATLVCLISDFYPGAVTVAWKADSSPVKAGVETTTPSKQSNNKYAASSYLSLTPEQWKSHRSYSCQVTHEGSTVEKTVAPTECS
- binding result [12]: binds

B6: (GITR-FAP) [8A06] 4+2 construct (bispecific antibody, human IgG1, lambda, L234A L235A)
heavy: not shown
light 1: SSELTQDPAVSVALGQTVRITCQGDSLRSYYASWYQQKPGQAPVLVIYGKNNRPSGIPDRFSGSSSGNTASLTITGAQAEDEADYYCNSPQTSGSAVFGGGTKLTVLGQPKAAPSVTLFPPSSEELQANKATLVCLISDFYPGAVTVAWKADSSPVKAGVETTTPSKQSNNKYAASSYLSLTPEQWKSHRSYSCQVTHEGSTVEKTVAPTECS
light 2: EIVLTQSPGTLSLSPGERATLSCRASQSVSRSYLAWYQQKPGQAPRLLIIGASTRATGIPDRFSGSGSGTDFTLTISRLEPEDFAVYYCQQGQVIPPTFGQGTKVEIKSSASTKGPSVFPLAPSSKSTSGGTAALGCLVKDYFPEPVTVSWNSGALTSGVHTFPAVLQSSGLYSLSSVVTVPSSSLGTQTYICNVNHKPSNTKVDKKVEPKSC
- binding result [13]: binds
- EC50 [14]: 3.85 nM
- binding result [15]: binds

B7: 49B4 P329GLALA IgG1 (antibody, V domains shown)
VH: QVQLVQSGAEVKKPGSSVKVSCKASGGTFSSYAISWVRQAPGQGLEWMGGIIPIFGTANYAQKFQGRVTITADKSTSTAYMELSSLRSEDTAVYYCAREYYRGPYDYWGQGTTVTVSS
VL: DIQMTQSPSTLSASVGDRVTITCRASQSISSWLAWYQQKPGKAPKLLIYDASSLESGVPSRFSGSGSGTEFTLTISSLQPDDFATYYCQQYSSQPYTFGQGTKVEIKR
notes: anti-OX40; sometimes misprinted 49B9; also called 49B4 IgG1; hu IgG1 (49B4)
- EC50 of NFκB activation in HeLa_hOx40_NFκB_luc1 reporter cells with secondary anti-human IgG Fcγ antibody [16]: 2.42 nM
- EC50 of rescuing suboptimal TCR stimulation with plate-immobilized anti-OX40 binder (preactivated human CD4 T cells) [17]: 0.591 nM
- binding result [18]: no binding
- Kd [19]: 460 nM
- koff [19]: 0.67 s⁻¹
- kon [19]: 1.4e+06 M⁻¹ s⁻¹
- Kd [20]: 510 nM
- koff [20]: 0.13 s⁻¹
- kon [20]: 250000 M⁻¹ s⁻¹
- EC50 [21]: 4.19 nM
- EC50 [22]: 907 nM
- Kd [23]: 350 nM
- koff [23]: 0.038 s⁻¹
- kon [23]: 110000 M⁻¹ s⁻¹
- EC50 [24]: 0.05 nM
- EC50 [25]: 12.7 nM
